Reference: patent US20210363241A1

How the values were obtained:
[1] = target: Human CD226 on the cell surface of stably transfected HEK 293 cells (human) (UniProt Q15762); experiment: flow cytometry on HEK 293 cells expressing human CD226, control IgG (denominator of the ratio)
[2] = target: Cynomolgus monkey CD226 on the cell surface of stably transfected HEK 293 cells (cynomolgus monkey); experiment: flow cytometry on HEK 293 cells expressing cynomolgus CD226, control IgG (denominator of the ratio)
Cynomolgus monkey CD226 on the cell surface of stably transfected HEK 293 cells (cynomolgus monkey), sequence (chain, as listed by the source): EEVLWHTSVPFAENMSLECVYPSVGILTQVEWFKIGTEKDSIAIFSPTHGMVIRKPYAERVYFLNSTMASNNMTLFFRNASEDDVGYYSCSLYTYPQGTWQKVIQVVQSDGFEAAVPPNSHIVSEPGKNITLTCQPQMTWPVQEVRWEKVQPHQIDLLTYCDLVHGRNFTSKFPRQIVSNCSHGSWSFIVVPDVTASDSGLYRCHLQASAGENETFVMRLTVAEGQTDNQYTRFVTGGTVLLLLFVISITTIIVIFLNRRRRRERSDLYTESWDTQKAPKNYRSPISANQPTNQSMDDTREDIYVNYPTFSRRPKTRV

Human CD226 on the cell surface of stably transfected HEK 293 cells (human), sequence (Q15762 19-336 limits assumed): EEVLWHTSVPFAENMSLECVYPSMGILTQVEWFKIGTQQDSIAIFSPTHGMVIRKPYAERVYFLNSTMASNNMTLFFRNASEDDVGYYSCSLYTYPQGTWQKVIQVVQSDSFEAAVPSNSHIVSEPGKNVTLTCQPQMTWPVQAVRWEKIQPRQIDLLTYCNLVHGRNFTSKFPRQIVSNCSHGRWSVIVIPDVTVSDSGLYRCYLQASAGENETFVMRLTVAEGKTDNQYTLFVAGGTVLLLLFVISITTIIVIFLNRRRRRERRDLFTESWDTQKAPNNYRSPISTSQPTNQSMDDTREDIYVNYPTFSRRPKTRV

MFI [1]: 8.98
MFI [2]: 3.94
Substance: Control human IgG1 (antibody)
